Article PMC8718266

Biological target: HA-FBW7 (UniProt Q8VBV4)
Assay: FLAG IP, HA immunoblot
Details: reference: wild type

| binding against the reference (sites T171,S175) | binding against the reference (sites T243,S247) | Substance |
| --- | --- | --- |
| weaker |  | KLF2 (3xFLAG-KLF2) (from UniProt Q60843) 2A N (T171A/S175A) |
|  | weaker | KLF2 (3xFLAG-KLF2) (from UniProt Q60843) 2A C (T243A/S247A) |
